Test results: publication PMC2185789 (The Journal of Experimental Medicine, 1980)

Biological target: C5b-8 complex (human, UniProt P01031 752-1676; P01031 19-673; P13671 22-934; P10643 23-843; P07357 31-584; …)
Test: negative-stain electron microscopy

B1: C9 (natural protein)
chain: not shown
binding result: binds
